The source of these data is publication PMC9035704.

Assay in all cases: cryo-EM structure
The target in test [1] is Danio rerio calcium homeostasis modulator 1 (drCALHM1) (Danio rerio) (UniProt E7F2J4).
The target is the same in test [2]. The source holds these as a separate data set.
Test [3] shares this target. This is another data set of the same source.

Several values for one entry are separate records, joined by “and”; a condition that tells them apart may be missing. Identical values can stand only once. Like-named read-outs stand apart in the source and are kept apart here.

As to “Danio rerio calcium homeostasis modulator 1 (drCALHM1) (from UniProt E7F2J4 1-346) (natural protein)”, the stoichiometry N (commonly a count of units in the complex or per binding partner) is 7 and 8 in test [1]; 7 in test [2]; 8 in test [3].
